The results in this text go back to paper PMC4595762, “Structural basis of Ornithine Decarboxylase inactivation and accelerated degradation by polyamine sensor Antizyme1” (Scientific Reports, 2015).

The assay has as its target T1, Ornithine decarboxylase (human, UniProt P11926 1-461).
T1 construct: Ornithine decarboxylase, Homo sapiens, full length; Cloned into pGEX-6p-1; The complex was purified and crystallised with the co-factor PLP (1 mM); One ODC monomer stands in the complex with cAZ1; also called ODC; human ODC; source: E. coli BL21 (DE3), purified (glutathione Sepharose 4B, PreScission cleavage, Superdex-200)
T1 sequence (looked up): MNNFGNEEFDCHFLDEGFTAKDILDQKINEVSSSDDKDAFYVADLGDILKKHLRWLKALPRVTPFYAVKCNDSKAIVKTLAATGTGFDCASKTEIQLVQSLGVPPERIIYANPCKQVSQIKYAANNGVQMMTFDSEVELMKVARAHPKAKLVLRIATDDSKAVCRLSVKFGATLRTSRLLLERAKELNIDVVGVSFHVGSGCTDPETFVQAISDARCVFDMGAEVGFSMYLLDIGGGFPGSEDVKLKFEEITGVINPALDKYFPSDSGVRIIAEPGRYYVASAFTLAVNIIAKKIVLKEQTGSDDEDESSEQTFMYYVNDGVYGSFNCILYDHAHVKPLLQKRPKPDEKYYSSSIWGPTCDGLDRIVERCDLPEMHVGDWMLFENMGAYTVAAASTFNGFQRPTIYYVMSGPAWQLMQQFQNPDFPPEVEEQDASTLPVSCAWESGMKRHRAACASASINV
In words: crystal structure; purified ODC and cAZ1 mixed on ice for 1 hour with cAZ1 in excess; complex purified on Superdex-200 in 20 mM Tris pH 8.5, 150 mM NaCl, 2 mM DTT, 1 mM PLP; hanging-drop crystals at 15 °C; 3.2 Å. The note with it: both partners purified.

B1: N-terminally truncated Antizyme1 (residues 69-228) (domain or fragment)
chain: not shown
notes: Antizyme1 (AZ1), Homo sapiens, N-terminally truncated, residues 69-228; Cloned into pGEX-6p-1; also called cAZ1; AZ1; source: E. coli BL21 (DE3), purified (glutathione Sepharose 4B, PreScission cleavage, Superdex-200)
For B1, the binding result was “binds”.
